From patent publication US20160137713A1

Legend:
[1] = molecular target: human FcRn on HEK293 cells (human) (UniProt P55899); assay: FACS on hFcRn-overexpressing HEK293 cells at pH 6.0, Alexa488 anti-human goat antibody; hIgG1 is the reference of the ratio
[2] = molecular target: human FcRn on HEK293 cells (human) (UniProt P55899); assay: FACS competition on hFcRn HEK293 cells at pH 6.0; remaining binding of 100 nM Alexa488-labeled hIgG1 (m14) with 1000 nM unlabeled competitor, percent of the tube without competitor
[3] = molecular target: human FcRn on HEK293 cells (human) (UniProt P55899); assay: FACS competition on hFcRn HEK293 cells at pH 6.0; remaining binding of 100 nM Alexa488-labeled hIgG1 (m14) with 500 nM unlabeled competitor, percent of the tube without competitor
[4] = molecular target: human FcRn on HEK293 cells (human) (UniProt P55899); assay: FACS competition on hFcRn HEK293 cells at pH 6.0; remaining binding of 100 nM Alexa488-labeled hIgG1 (m14) with 250 nM unlabeled competitor, percent of the tube without competitor
[5] = molecular target: human FcRn on HEK293 cells (human) (UniProt P55899); assay: FACS on hFcRn-overexpressing HEK293 cells at pH 7.4, Alexa488 anti-human goat antibody; hIgG1 is the reference of the ratio

human FcRn on HEK293 cells (human), sequence (P55899 24-365, chain 1 of 2): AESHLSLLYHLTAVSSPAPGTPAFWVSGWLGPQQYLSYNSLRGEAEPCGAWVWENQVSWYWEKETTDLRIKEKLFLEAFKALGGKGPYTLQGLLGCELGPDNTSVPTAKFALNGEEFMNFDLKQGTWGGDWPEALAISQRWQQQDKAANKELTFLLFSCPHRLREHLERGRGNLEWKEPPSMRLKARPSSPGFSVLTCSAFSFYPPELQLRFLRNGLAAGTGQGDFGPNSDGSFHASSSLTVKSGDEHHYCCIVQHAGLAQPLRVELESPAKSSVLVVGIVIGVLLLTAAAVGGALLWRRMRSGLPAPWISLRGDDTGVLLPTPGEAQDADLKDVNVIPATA
human FcRn on HEK293 cells (human), sequence (P61769 21-119, chain 2 of 2, further chain): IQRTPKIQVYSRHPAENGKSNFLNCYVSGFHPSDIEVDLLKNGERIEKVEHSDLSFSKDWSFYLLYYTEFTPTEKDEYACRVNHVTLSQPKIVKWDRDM

human IgG1 (antibody)
Relative MFI (Fold) [1]: 1 fold
Relative MFI(%) at 1000nM [2]: 69.1%
Relative MFI(%) at 500nM [3]: 69.9%
Relative MFI(%) at 250nM [4]: 87.4%
Relative MFI (Fold) [5]: 1 fold
